Assay: soluble on expression in E. coli; label from the status in PepcDB or PDB records

| Sequence | soluble on expression in E. coli |
| --- | --- |
| MTELKDRLQVADKEKWNLTDIYDTIEDWESDFHKIEVLTNELHEFNGNIHDGNSLLAYLTKSEEISSIISLMFAYARLQSDLDTRDTDAQSLVDKVSQLHVKVSAAKSFFSPFLLSVDENTLHTYIEEAEGLQYYKEDLFELYRYKKHVLNKDQEEILSQMGEALSSPQHTYGMLNNADILFGEVTSNDGEKVTLTRGMYAKLIEDESREKRKEAYKAYYKPYVQLKNSIASTLSAAIKNNVTVSKLRKYPSALEKSLFGDMVPKEVYENLIETTKKNIQSLHTYNKLRKEKLNVDELRQYDLSVDLVQGVKQDIPYDNAFDIMIESLAPLGEEYIETLKSFKDKRYIDVRETPGKCSGAYNFGVYGVHPFILLNHHDDLNSLFTLTHECGHGMHTHYSHGYQPRISAHYTIFVAEVASTVNEVLLIHHLLKEAKDANVRNHLVNHFIEKFKGTFFTQIMFAEFEKITHEMAQQGKPLNAQVFSDVYENLFREYNGDSLVFDEEVKYGWARIPHFYRPFYVYKYATGFASAIQIADKLLSGDPNAQKNYLEFLKGGSSDYPLNLLKKAGVDLTTPEPIESALNRFSELVEEFSTL | not soluble |
| MTENVEYIRVLLKSSQAEVQMLREQNEFRDDLLKMFKVKLEVNALNNLPVRRNLSVEISNLETKKLKTEIAFLKEELGREGKKLTIANTVHEQLKKDLEAEKRNSMFLSELLTFYQNGHQPQLPAEDQFVDFLQTETRSVKEALKEKEEEVKRLLVDMEGKTFQNLTEKGRMEEEMNDAKREAQILRNEMKSLQKNMTAKENELLGYLRDASETHTEMQKDYKIQILELQRRNRILERHLDNIQ | not soluble |
| MTEPFIVRRETQIAAPRATVFAYLTDPEKILSWMGSDATTEPHPGGLYLLKGIGPRGAAARGAFREVVPVHRLAYTFGWEGGQEVPPGSSLIEIDLIERDGGTLLRMTHSGLPTEEQAAAHAKGWAHYLERLTTAAAGNDPGPDNGVSTKSLEHHHHHH | soluble |
| MTERILEVNDLHVSFDITAGEVQAVRGVDFYLNKGETLAIVGESGSGKSVTTKAITKLFQGDTGRIKKGEILFLGEDLAKKPENELIKLRGKDISMIFQDPMTSLNPTMQIGKQVMEPLIKHKNYSKAQAKKRALEILNLVGLPNAEKRFKAYPHQFSGGQRQRIVIATALACEPKVLIADEPTTALDVTMQAQILDLMKELQQKIDTAIIFITHDLGVVANIADRVAVMYGGQMVETGDVNEIFYDPKHPYTWGLLSSMPDLSTTNDTPLLAIPGAPPDLLHPPKGDAFARRSQYALDIDFKVEPPWFKVSPTHFVKSWLLDARAPKVELPELVKQRMKPMPNNYEKPLKVERVSFNEK | not soluble |
| MTETSTVSIASSAIVCVEADIKGEVIIKEGCVVHPFVVFDATKGPIYVGENNIFEEYAVIRNNSDGQPMIIGDWNIFQVHSKSSAKYVGSRNVIGVHAVLEDGCSVSDDCSVGAKCTVFSHQNLEPSVSVYAATNLSRTTKTPNMTSPHQIEFLRKILPSYHHLYGKKKAVATASASAAQ | not soluble |
| MTFAEYFKNWYIFYKKPKVSKVTLNRYQYTYNVINEYFGNKLLKDITRANYQKFIVKYGQNHSPNTMKMINNCIKACVKNAVYDEEIKKDFTYNIELISNRDNVVQLEHHHHHH | not soluble |
| MTFAGIDVSKTHLDLALVSNSPKPTRLRFPNSPEGRQALLAALAHHNPAWVALEPTSAYHLPLLKLLAENRLQVALVNPYHLAAFRKAKGERQKTDRQDALLLARYAQVYHEDLRAYTLPPETLRELKALVGYREDLAGRERTILNQMEAAEWAGSKEVLALLQKELACVKGLLGEVEARIQALLATLPEAEVLMALPGVGPQVAAAVLALLPPELWGRAKRAASYAGLIPEREESGKSVERSRLSKKGPPLLRRKLYMGALVAVRHDPEMRAFYHRLLSRGKRKKQALVAVAHKLLRRMMGRLREYYATQLDQGVA | soluble |
| MTFGAGHLRAAEALIEAVRKKSPEAEITHLDFGAFISKTLNTIVKNTYIELIKHTPRLYGMFYYRTSKIRPQSLIQRFINILGRKEFLDYIKGLNPDVIICTYPVIAGVLGELRFKGVIHAPVVSVVTDYGVHSQYIQRGVDLYIAGCQDVYKDLIAGGIARERIRITGIPVDPKFEEELEHHHHHH | not soluble |
